Results: PMC12698695 (Nature Communications, 2025)

Target: the molecule itself
Test: cryo-EM structure

B1: human PANX1 W74A mutant (natural protein)
chain: MAIAQLATEYVFSDFLLKEPTEPKFKGLRLELAVDKMVTCIAVGLPLLLISLAFAQEISIGTQISCFSPSSFSARQAAFVDSYCWAAVQQKNSLQSESGNLPLWLHKFFPYILLLFAILLYLPPLFWRFAAAPHICSDLKFIMEELDKVYNRAIKAAKSARDLDMRDGACSVPGVTENLGQSLWEVSESHFKYPIVEQYLKTKKNSNNLIIKYISCRLLTLIIILLACIYLGYYFSLSSLSDEFVCSIKSGILRNDSTVPDQFQCKLIAVGIFQLLSVINLVVYVLLAPVVVYTLFVPFRQKTDVLKVYEILPTFDVLHFKSEGYNDLSLYNLFLEENISEVKSYKCLKVLENIKSSGQGIDPMLLLTNLGMIKMDVVDGKTPMSAEMREEQGNQTAELQGMNIDSETKANNGEKNARQRLLDSSC
B1: binds.
